Holding throughout (assay): cell-based or functional assay
The target in experiment [1] is T1, human CD40 (human, UniProt P25942 21-277).
For experiment [2], the target named is T1, human CD40. This is another data set of the same source.
Experiment [3] addresses T2, Macaca fascicularis CD40 (Macaca fascicularis (cynomolgus monkey), UniProt P25942 21-277 (human entry)).
T2 chain: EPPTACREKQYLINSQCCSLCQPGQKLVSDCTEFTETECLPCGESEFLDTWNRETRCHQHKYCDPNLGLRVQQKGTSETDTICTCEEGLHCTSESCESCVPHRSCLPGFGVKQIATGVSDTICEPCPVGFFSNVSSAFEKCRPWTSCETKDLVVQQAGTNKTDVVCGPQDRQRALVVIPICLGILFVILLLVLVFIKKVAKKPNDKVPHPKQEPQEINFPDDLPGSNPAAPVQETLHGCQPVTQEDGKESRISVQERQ

Values joined by “and” are separate entries in the source; they are usually repeats but may differ in a detail not shown here. Equal values may be shown once. A value given as a limit tells only on which side of the number the result lay.

B1: DMS0682 BMS3h-56-258-TVA-DOM7h-11-90 (bispecific antibody)
chain: EVQLLESGGGLVQPGGSLRLSCAASGFTFRDYEMWWVRQAPGKGLERVSAINPQGTRTYYADSVKGRFTISRDNSKNTLYLQMNSLRAEDTAVYYCAKLPFYFHEWGQGTLVTVSSTVADIQMTQSPSSLSASVGDRVTITCRASRPIGTMLSWYQQKPGKAPKLLILAFSRLQSGVPSRFSGSGSGTDFTLTISNLQPEDFATYYCAQAGTHPTTFGQGTKVEIKR
As for B1, in experiment [1], the “ICAM-1 Cell Assay EC50 (nM), 10% bovine serum” value worked out at 10.2 nM and the “ICAM-1 Cell Assay EC50 (nM), 10% human serum” value was 94.8 nM.

B2: BMS3h-275 (other)
VH: EVQLLESGGGLVQPGGSLRLSCAASGFTFTRYQMGWVRQAPGKGLEWVSVINVWGSSTYYADSVKGRFTISRDNSKNTLYLQMNSLRAEDTAVYYCAKMSGKFAYWGQGTLVTVSS
Consider B2, for which the “hIZCD40L-driven Human B Cell Proliferation EC50” value in experiment [2] amounted to 157 nM. Besides, the “hIZCD40L-driven Cyno B Cell Proliferation EC50” value in experiment [3] is over 7000 nM.

B3: DMS0680 DOM7h-11-90-(G4S)3-BMS3h-56-258 (bispecific antibody)
chain: DIQMTQSPSSLSASVGDRVTITCRASRPIGTMLSWYQQKPGKAPKLLILAFSRLQSGVPSRFSGSGSGTDFTLTISNLQPEDFATYYCAQAGTHPTTFGQGTKVEIKRGGGGSGGGGSGGGGSEVQLLESGGGLVQPGGSLRLSCAASGFTFRDYEMWWVRQAPGKGLERVSAINPQGTRTYYADSVKGRFTISRDNSKNTLYLQMNSLRAEDTAVYYCAKLPFYFHEWGQGTLVTVSS
In the case of B3, in experiment [1], the “ICAM-1 Cell Assay EC50 (nM), 10% bovine serum” value came out at 39.3 nM and the “ICAM-1 Cell Assay EC50 (nM), 10% human serum” value is 74.2 nM.

B4: BMS3h-233 (other)
VH: EVQLLESGGGLVQPGGSLRLSCAASGFTFAHYNMRWVRQAPGKGLEWVSTITKTGFRTYYADSVKGRFTISRDNSKNTLYLQMNSLRAEDTAVYYCAKAGQFDFDYWGQGTLVTVSS
Regarding B4, in experiment [2], the “CHO-hCD40L-driven DC Activation IL-12 EC50” value was 1490 nM and > 2000 nM; the “hIZCD40L-driven Human B Cell Proliferation EC50” value was 184 nM. Further, in experiment [3], the “hIZCD40L-driven Cyno B Cell Proliferation EC50” value is over 7000 nM.

B5: BMS3h-287 (other)
VH: EVQLLESGGGLVQPGGSLRLSCAASGFTFTNYRMSWVRQAPGKGLEWVSAIDDLGVSTYYADSVKGRFTISRDNSKNTLYLQMNSLRAEDTAVYYCAKWRLKNSQPTDFDYWGQGTLVTVSS
As to B5, the “hIZCD40L-driven Human B Cell Proliferation EC50” value in experiment [2] is 287 nM. Also, in experiment [3], the “hIZCD40L-driven Cyno B Cell Proliferation EC50” value was found to be 918 nM.

B6: BMS3h-312 (other)
VH: EVQLLESGGGLVQPGGSLRLSCAASGFTFDDEKMLWVRQAPGKGLEWVSSISVSGLHTYYADSVKGRFTISRDNSKNTLYLQMNSLRAEDTAVYYCAKEEAGSWSFDYWGQGTLVTVSS
On to B6, for which the “hIZCD40L-driven Human B Cell Proliferation EC50” value in experiment [2] is 1100 nM. The “hIZCD40L-driven Cyno B Cell Proliferation EC50” value in experiment [3] is over 7000 nM.

B7: BMS3h-309 (other)
VH: EVQLLESGGGLVQPGGSLRLSCAASGFTFSGHDMSWVRQAPGKGLEWVSAISPHGTHTYYADSVKGRFTISRDNSKNTLYLQMNSLRAEDTAVYYCAKGIRGWIGHDTQPFDYWGQGTLVTVSS
On to B7, for which, in experiment [2], the “hIZCD40L-driven Human B Cell Proliferation EC50” value worked out at 648 nM. Moreover, the “hIZCD40L-driven Cyno B Cell Proliferation EC50” value in experiment [3] stood at 838 nM.

B8: BMS3h-257 (other)
VH: EVQLLESGGGLVQPGGSLRLSCAASGFTFQNYQMAWVRQAPGKGLEWVSTISGTGKNTYYADSVKGRFTISRDNSKNTLYLQMNSLRAEDTAVYYCAKTPQNYFSVRRFDYWGQGTLVTVSS
For the molecule B8, in experiment [2], the “CHO-hCD40L-driven DC Activation IL-12 EC50” value was 704 nM and the “hIZCD40L-driven Human B Cell Proliferation EC50” value is 135 nM. Besides, the “hIZCD40L-driven Cyno B Cell Proliferation EC50” value in experiment [3] was over 7000 nM.

B9: DMS0679 DOM7h-11-90-G4S-BMS3h-56-258 (bispecific antibody)
chain: DIQMTQSPSSLSASVGDRVTITCRASRPIGTMLSWYQQKPGKAPKLLILAFSRLQSGVPSRFSGSGSGTDFTLTISNLQPEDFATYYCAQAGTHPTTFGQGTKVEIKRGGGGSEVQLLESGGGLVQPGGSLRLSCAASGFTFRDYEMWWVRQAPGKGLERVSAINPQGTRTYYADSVKGRFTISRDNSKNTLYLQMNSLRAEDTAVYYCAKLPFYFHEWGQGTLVTVSS
With B9, in experiment [1], the “ICAM-1 Cell Assay EC50 (nM), 10% bovine serum” value is 21.7 nM and the “ICAM-1 Cell Assay EC50 (nM), 10% human serum” value is 39.2 nM.

B10: DMS0677 DOM7h-11-90-TVA-BMS3h-56-258 (bispecific antibody)
chain: DIQMTQSPSSLSASVGDRVTITCRASRPIGTMLSWYQQKPGKAPKLLILAFSRLQSGVPSRFSGSGSGTDFTLTISNLQPEDFATYYCAQAGTHPTTFGQGTKVEIKRTVAEVQLLESGGGLVQPGGSLRLSCAASGFTFRDYEMWWVRQAPGKGLERVSAINPQGTRTYYADSVKGRFTISRDNSKNTLYLQMNSLRAEDTAVYYCAKLPFYFHEWGQGTLVTVSS
As for B10, in experiment [1], the “ICAM-1 Cell Assay EC50 (nM), 10% bovine serum” value amounted to 21.7 nM and the “ICAM-1 Cell Assay EC50 (nM), 10% human serum” value worked out at 20.4 nM.

B11: BMS3h-296 (other)
VH: EVQLLESGGGLVQPGGSLRLSCAASGFTFGAYPMYWVRQAPGKGLEWVSSIHKDGRITYYADSVKGRFTISRDNSKNTLYLQMNSLRAEDTAVYYCAKQGTPVDGFDYWGQGTLVTVSS
For B11, the “hIZCD40L-driven Human B Cell Proliferation EC50” value in experiment [2] was determined as 306 nM. Further, the “hIZCD40L-driven Cyno B Cell Proliferation EC50” value in experiment [3] is over 7000 nM.

B12: DMS0683 BMS3h-56-258-ASTSGPS-DOM7h-11-90 (bispecific antibody)
chain: EVQLLESGGGLVQPGGSLRLSCAASGFTFRDYEMWWVRQAPGKGLERVSAINPQGTRTYYADSVKGRFTISRDNSKNTLYLQMNSLRAEDTAVYYCAKLPFYFHEWGQGTLVTVSSASTSGPSDIQMTQSPSSLSASVGDRVTITCRASRPIGTMLSWYQQKPGKAPKLLILAFSRLQSGVPSRFSGSGSGTDFTLTISNLQPEDFATYYCAQAGTHPTTFGQGTKVEIKR
With B12, in experiment [1], the “ICAM-1 Cell Assay EC50 (nM), 10% bovine serum” value was determined as 32.4 nM and the “ICAM-1 Cell Assay EC50 (nM), 10% human serum” value was 50.9 nM.

B13: BMS3h-240 (other)
VH: EVQLLESGGGLVQPGGSLRLSCAASGFTFWVYDMRWVRQAPGKGLEWVSTISATGVHTYYADSVKGRFTISRDNSKNTLYLQMNSLRAEDTAVYYCAKYPPAGRFDYWGQGTLVTVSS
B13: the “hIZCD40L-driven Human B Cell Proliferation EC50” value in experiment [2] was over 7000 nM. Besides, the “hIZCD40L-driven Cyno B Cell Proliferation EC50” value in experiment [3] was over 7000 nM.

B14: BMS3h-217-23 (other)
VL: DIQMTQSPSSLSASVGDRVTITCRASHFIGSLLSWYQVKPGKAPKLLITYGSLLQSGVPSRFSGSGSGTDFTLTISSLQPEDFATYYCGQGVLWPATFGQGTTVEIKR
As for B14, the “hIZCD40L-driven Human B Cell Proliferation EC50” value in experiment [2] is 16 nM. For the same molecule, in experiment [3], the “hIZCD40L-driven Cyno B Cell Proliferation EC50” value worked out at 15 nM.

B15: BMS3h-231 (other)
VH: EVQLLESGGGLVQPGGSLRLSCAASGFTFSAYNMWWARQAPGKGLEWVSWINSTGSRTYYADSVKGRFTISRDNSKNTLYLQMNSLRAEDTAVYYCAKNWHRGRFDYWGQGTLVTVSS
For the molecule B15, in experiment [2], the “hIZCD40L-driven Human B Cell Proliferation EC50” value came out at 328 nM. For the same molecule, in experiment [3], the “hIZCD40L-driven Cyno B Cell Proliferation EC50” value was over 7000 nM.

B16: DMS0681 DOM7h-11-90-(G4S)5-BMS3h-56-258 (bispecific antibody)
chain: DIQMTQSPSSLSASVGDRVTITCRASRPIGTMLSWYQQKPGKAPKLLILAFSRLQSGVPSRFSGSGSGTDFTLTISNLQPEDFATYYCAQAGTHPTTFGQGTKVEIKRGGGGSGGGGSGGGGSGGGGSGGGGSEVQLLESGGGLVQPGGSLRLSCAASGFTFRDYEMWWVRQAPGKGLERVSAINPQGTRTYYADSVKGRFTISRDNSKNTLYLQMNSLRAEDTAVYYCAKLPFYFHEWGQGTLVTVSS
With B16, in experiment [1], the “ICAM-1 Cell Assay EC50 (nM), 10% bovine serum” value was 43.6 nM and the “ICAM-1 Cell Assay EC50 (nM), 10% human serum” value is 53.3 nM.
